These results are taken from US20160053277A1, “Compositions Having Dicamba Decarboxylase Activity and Methods of Use” (PIONEER HI-BRED INTERNATIONAL, INC., priority 2013, published 2016).

The labels stand for the following.
B1: 88 (protein, listed as Starkeya novella)
chain: MARKIALEEHFTTPELAGKYVARPTQSDALFADIERRLADFDELRLEMMDRAEIDLMVLSVTTPGVQGVRDTGEAIRLARGANDFLAREVQKRPSRYAGFAHLAMQDAEAAATELERAVRELGFRGALINGQTNGHYLDEDQYAPFWERVQELDVPVYLHPGNMADSPAMFAHRPELGGPIWAWTAETAAHALRLVFGGTFTRFPGAKVILGHMGETLPFLLWRLDSRREFDLGEKLAPDALPSAIIKRNIAVTTSGVCDPAPLVAALQALSDDNVMFSVDYPYEDPQLASKFIETAPIGEETRAKVCHGNAERLLGL
B2: 108 (protein, listed as Staphylococcus aureus)
chain: MAKSITFEEHYVIEDIQKETMNAISADPKGVPMKVMLEGLEKKTGFTNADELSHHDERIQFMNNQDVQIQVLSYGNGSPSNLVGQKAIELCQKANDQLANYIAQYPNRFVGFATLPINEPEAAAREFERCINDLGFKGALIMGRAQDGFLDQDKYDIIFKTAENLDVPIYLHPAPVNSDIYQSYYKGNYPEVTAATFACFGYGWHIDVGIHAIHLVLSGIFDRYPKLNMIIGHWGEFIPFFLERMDEALFAEHLNHSVSYYFKNSFYITPSGMLTKPQFDLVKKEVGIDRILYAADYPYIEPEKLGVFLDELGLTDEEKEKISYTNGAKLLGLSSNN
B3: 89 (protein, listed as Erwinia billingiae)
chain: MATNRRDFLKNATAVMAGSTVFAGSSHFASAAAVEPAAVQPPRRIIALEEHFMLPEFVGYLHETQQNLRNGLVDKVVTPLSDFGKGRLEIMDKNGVDFAVLSLSGPGVQAEPDRVKAVRLARYANDKLATEMQKNPRRYGGFAHLAMQDPLAAANELERCVKQLHMQGGMINGETDGLYLDDRRYDVFWERVEALNVPIYIHPGNPPDYPHMFAGHPEMWGPVWSWAVETCSHALRLIFSGTFDRYPGARVILGHMGETLPIQLWRLDSRYQIANQTFAIKHPPSWYAKKNITITTSGVCNDAALRCALDSMGSENVMFSIDYPFESTEIAVNWLKTANITEQERNAVAWGNATSILRLGA
B4: 19 (protein, listed as Talaromyces marneffei)
chain: MATPIITLEEHYISSAIRDASETDHYAVFPSQIISKLNTLSTERLQDLDNGHVSLQVISHGPGAQPPYLCQAANDELASAISANPTRFAGFALLPIAEPQLAVQELERCITQHKFVGALIDNHTNGQFYDDQKFWPVFEKAQELDAPIYVHPSYPDEESGVAAHYRGNYDDRIAAALGAYGWGWHSDTALSILRLFAAGLFDTYPNIKIIIGHMGEMLPFQLERVIGIASRFGRSRGLREVWTQNIWVTTSGMFALAPLACLLQTMPIERVLYSVDYPFSANEKGFAFLEEIKKSGLIKEGEDWERFLYKNAQELLKVNV
B5: 21 (protein, listed as Agrobacterium tumefaciens)
chain: MAQGKVALEEHFAIPETLQDSAGFVPGDYWKELQHRLLDIQDTRLKLMDAHGIETMILSLNAPAVQAIPDRKKAIEIARRANDVLAEECARRPDRFLAFAALPLQDPDAATQELQRCVNDLGFVGALVNGFSQEGDGQTPLYYDLPQYRPFWGEVEKLDVPFYLHPRNPLPQDSRIYDGHPWLLGPTWAFAQETAVHALRLMASGLFDAHPRLNIILGHMGEGLPYMMWRIDHRNAWVKLPPRYPAKRRFVDYFNENFHITTSGNFRTQTLIDAILEIGADRILFSTDWPFENIDHASDWFNATTIAEADRVKIGRTNARRLFKLDGR
B6: 92 (protein, listed as Chitinophaga pinensis)
chain: MARIVTLEEHVSFPEMTALLPEEILKNRKQSGAALQMQEKLADITGERLTSMKAAGISMQVLSVENTDVYLLPDSLAPAFAAKYNDLLADKISSHSDAFAAFAMLPMTVPEAAADELERAVKTHGFCGAMIKGLINGVFLDAPKFAPVFACAEKLGVPLYIHPGIPPKEVIDAYYSNVGDTKGPNEAIACYGWGWHSETAIHILRLLAAGIFDKYPQLNIIIGHMGEMLPMMWERSNRVFQPGNNGKNQRTLIETFRKQLYITTSGIFTQPPLQIAIDTIGIDNILFSIDYPFSSNQMGIDFLTKAALPAEQLAKMAHGNADRILKF
B7: 87 (protein, listed as Novosphingobium sp.)
chain: MASDIATAADLQTGGRQGYLRIATEEAFATRDQIDVYLRMVRDGTADRGMTSLWGFYAQSPSARATQIIERLLDLGEQRLADMDAAGIDKAVLALTSPGVQPLLDMEEARRIAGNANDRLAERCAAHPDRFIGMTAVAPQDPQWSAREILRGATQLGFKGVQINSHTQGRYLDEPFFDPIFRALGDVGQPLYIHPGTPPDSMIGPLLDAGLDGAIYGFGVETGMHLLRLITAGIFDRYPDLQIMVGHMGEALPYWLYRLDYMHQAGIRSQRYERMRPLKRTIAGYFRSNVLVTCSGMAWEPAIQFARQVMGEDRVMYAMDYPYQYEADEVRALDVMDLSPESKRKFFQTNAERWFDL
B8: 22 (protein, listed as Staphylococcus epidermidis)
chain: MAKSINFEEHYVVDDIQKETMKYMSSDPNGVPMQTMLKGLEQKSGFTNADDITKHDERIKFMDEHDVEMQVLSYGNGAPSNLEGERAIELCQQANDTLAKYVNEHPDRFVGFATLPINEPQAAVEEFKRCIKELGFKGALIMGHPKNGFLDQDQYDDLFATAEALNVPIYLHPSPVQSDVYQAYYKGNYSDVTAATFACFGYGWHVDVGIHAIHLVLSGVFDRHPNLNMIIGHWGEFVPFFLERMDDILFADHLEHPISYYFKNNFYITPSGMLTKPQFDLVKAEVGVDRILYSADYPYVEPDKLGTFLDELDLTEEEKEKISYKNGAKLLGLEK
B9: 26 (protein, listed as Variovorax paradoxus)
chain: MATHMAPMKNKIALEEHFAIDLTIADSQVYARPEVWQGLKSNLLDFEQQRLEKMDEWGTEFSILSLNSPAVQGIPDAKRAIEVAQRANDVLAEQVKRHPTRFGGFAALPMQDPEASARELERCVNQLGFHGFLVNGFSQVGDENIVVYYDDARFNDFWTAAAALKKPFYMHPRDPLLAREPIYDGAHWLTGPTWAFAMETAIHALRLMSSGMFDRHPALQMILGHFGEGIPFNIWRVDHILRKGRRGMPCDKEIGEYLRSNVHITTSGNFRTPTLLSTMLEVGSDRIMYSVDYPFEKHEDAARWFDTCEISENDRQKIGRDNARKLFGLK
B10: 5 (protein, listed as Staphylococcus aureus)
chain: MAQNNMEANQMKSITFEEHYVIEDIQKETMNAISADPKGVPMKVMLEGLEKKTGFTNADELSHHDERIQFMNNQDVQIQVLSYGNGSPSNLVGQKAIELCQKANDQLANYIAQYPNRFVGFATLPINEPEAAAREFERCINDLGFKGALIMGRAQDGFLDQDKYDIIFKTAENLGVPIYLHPAPVNSDIYQSYYKGNYPEVTAATFACFGYGWHIDVGIHAIHLVLSGIFDRYPKLNMIIGHWGEFIPFFLERMDEALFAEHLNHPVSYYFKNNFYITPSGMLTKPQFDLVKKEAGIDRILYAADYPYIEPEKLGVFLDELGLTDEEKEKISYTNGAKLLGLSSNN
B11: 16 (protein, listed as Staphylococcus aureus)
chain: B10 chain with A131T
B12: 4 (protein, listed as Lactobacillus buchneri)
chain: MAKVITLEEHFSSQKLGQKMAEVLPKRPIGNVSPKMQDYMQRSLPPEAELEDVTGSRIQWMDQHQISMQILSYGNQNPQNSDPKFAVELTKLANDELAKAVAKAPDRFRAFASLPVSHPTDAAAELKRGVEELGFKGAMLVRPTSQAHPFFDDPFYLPIFEAAANLNVPVYLHPSFPDSQIIDYYYSNGPWDDKVSGILGTAGYGWHTDVGIQTVRLLLSGVFEKYPNLKLISGHWGEFASFALERMDQVMYPETNLSEPISKIYRDHVYVTPSGILTEPQLKFVKDEVGIEHLLYSIDYPYIKPENSGSFIESSPLTDEEKELFAHGNAEKLLQL

Substitutions are numbered along the chain they refer to.

One data set can be described thus: 14C assay with IPTG-induced recombinant E. coli cells: 14CO2 captured from [14C]-carboxyl-labeled dicamba. The following applies: among the 108 sequences tested, recombinant E. coli cells.
Regarding B1, the “decarboxylation activity of dicamba” value is reported as “showed decarboxylation activity of dicamba”.

On to B2, for which the “decarboxylation activity of dicamba” value is “showed decarboxylation activity of dicamba”.

B3: the “decarboxylation activity of dicamba” value was “showed decarboxylation activity of dicamba”.

Turning to B4, the “decarboxylation activity of dicamba” value was “showed decarboxylation activity of dicamba”.

For the molecule B5, the “decarboxylation activity of dicamba” value is given as “showed decarboxylation activity of dicamba”.

With B6, the “decarboxylation activity of dicamba” value is reported as “showed decarboxylation activity of dicamba”.

Consider B7, for which the “decarboxylation activity of dicamba” value was “showed decarboxylation activity of dicamba”.

Consider B8, for which the “decarboxylation activity of dicamba” value is listed as “showed decarboxylation activity of dicamba”.

Consider B9, for which the “decarboxylation activity of dicamba” value is “showed decarboxylation activity of dicamba”.

As for B10, the “decarboxylation activity of dicamba” value is reported as “showed decarboxylation activity of dicamba”.

Take B11: the “decarboxylation activity of dicamba” value is reported as “showed decarboxylation activity of dicamba”.

Regarding B12, the “decarboxylation activity of dicamba” value is recorded as “showed decarboxylation activity of dicamba”.

The data set is the same for the next values; noted with them: dicamba decarboxylation activity of the protein of the given SEQ ID NO; High / Low / No.
For B1, the “Enzymatic Detection level” value was “High”.

With B2, the “Enzymatic Detection level” value is on record as “High”.

Take B3: the “Enzymatic Detection level” value is reported as “High”.

With B4, the “Enzymatic Detection level” value was “High”.

Consider B5, for which the “Enzymatic Detection level” value is given as “High”.

In the case of B6, the “Enzymatic Detection level” value is reported as “High”.

In the case of B7, the “Enzymatic Detection level” value is listed as “High”.

As for B8, the “Enzymatic Detection level” value is “High”.

With B9, the “Enzymatic Detection level” value is listed as “High”.

With B10, the “Enzymatic Detection level” value is “High”.

As to B11, the “Enzymatic Detection level” value is on record as “High”.

Turning to B12, the “Enzymatic Detection level” value is reported as “High”.

Still in this data set, the particulars now being: induced recombinant E. coli cells, [14C]-carboxyl-labeled dicamba, 14CO2 capture.
For the molecule B1, the “Dicamba Decarboxylase Activity” value is on record as “High”.

For B2, the “Dicamba Decarboxylase Activity” value is “High”.

As for B3, the “Dicamba Decarboxylase Activity” value is “High”.

Turning to B4, the “Dicamba Decarboxylase Activity” value is on record as “High”.

Consider B5, for which the “Dicamba Decarboxylase Activity” value is listed as “High”.

Take B6: the “Dicamba Decarboxylase Activity” value is recorded as “Yes”.

As for B7, the “Dicamba Decarboxylase Activity” value is reported as “High”.

Turning to B8, the “Dicamba Decarboxylase Activity” value is on record as “High”.

B9: the “Dicamba Decarboxylase Activity” value is given as “High”.

As for B10, the “Dicamba Decarboxylase Activity” value was “High”.

For B11, the “Dicamba Decarboxylase Activity” value is “High”.

On to B12, for which the “Dicamba Decarboxylase Activity” value was “High”.

A further data set can be described thus: Saturation mutagenesis of SEQ ID NO:109: dicamba decarboxylation activity of point mutants (carbon dioxide released). The following applies: decarboxylation activity (carbon dioxide released) of point mutant compared with unmutated backbone protein; backbone SEQ ID NO: 109.
Take B1: the “Fold Activity” value amounted to 1.3.

B2: the “Fold Activity” value is given as 1.6.

B3: the “Fold Activity” value is on record as 3.1.

On to B4, for which the “Fold Activity” value is reported as 1.6.

On to B5, for which the “Fold Activity” value turned out to be 1.9.

Take B6: the “Fold Activity” value is recorded as 1.7.

On to B7, for which the “Fold Activity” value is recorded as 1.4.

As for B8, the “Fold Activity” value turned out to be 1.6.

Take B9: the “Fold Activity” value was 1.2.

B10: the “Fold Activity” value stood at 0.8.

Consider B11, for which the “Fold Activity” value was 1.1.

B12: the “Fold Activity” value came to 1.
